Assay results reported in US20150258192A1, “COMPOSITIONS AND METHODS FOR PREVENTING OR TREATING CHRONIC LUNG ALLOGRAFT DYSFUNCTION (CLAD) AND IDIOPATHIC PULMONARY FIBROSIS (IPF)” (priority 2014, published 2015).
No end group written: not given here.

Columns and labels:
Experiment in all cases: Kinase Profiling Assay
Format in all cases: biochemical
Conditions in all cases: peptide 100 μM
[1] = target: T1, ALK4(h) (Homo sapiens, UniProt P36896)
T1 sequence (P36896 24-505): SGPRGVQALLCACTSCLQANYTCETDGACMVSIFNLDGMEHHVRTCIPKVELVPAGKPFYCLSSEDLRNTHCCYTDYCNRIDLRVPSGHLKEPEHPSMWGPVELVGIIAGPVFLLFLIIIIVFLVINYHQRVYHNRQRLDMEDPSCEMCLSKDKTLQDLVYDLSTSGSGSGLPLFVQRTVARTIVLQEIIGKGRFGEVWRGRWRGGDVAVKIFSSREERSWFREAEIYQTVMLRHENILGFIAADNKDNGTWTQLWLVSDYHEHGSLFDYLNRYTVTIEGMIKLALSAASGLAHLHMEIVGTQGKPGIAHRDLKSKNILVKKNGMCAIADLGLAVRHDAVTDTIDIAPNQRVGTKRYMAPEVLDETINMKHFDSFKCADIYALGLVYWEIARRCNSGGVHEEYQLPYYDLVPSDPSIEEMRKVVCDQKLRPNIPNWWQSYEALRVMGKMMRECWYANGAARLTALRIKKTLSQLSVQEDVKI
Outline: (§1)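 Kinase inhibition by MK2 inhibitory peptides was profiled radiometrically, with substrate phosphorylation from labeled ATP read by scintillation after capture on a charged filter. Values are relative to 100% activity and measured in duplicate.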

[2] = target: DAPK1(h) (Homo sapiens, UniProt P53355)
Outline: as §1

[3] = target: T2, DYRK2(h) (Homo sapiens, UniProt Q92630)
T2 sequence (Q92630 1-601): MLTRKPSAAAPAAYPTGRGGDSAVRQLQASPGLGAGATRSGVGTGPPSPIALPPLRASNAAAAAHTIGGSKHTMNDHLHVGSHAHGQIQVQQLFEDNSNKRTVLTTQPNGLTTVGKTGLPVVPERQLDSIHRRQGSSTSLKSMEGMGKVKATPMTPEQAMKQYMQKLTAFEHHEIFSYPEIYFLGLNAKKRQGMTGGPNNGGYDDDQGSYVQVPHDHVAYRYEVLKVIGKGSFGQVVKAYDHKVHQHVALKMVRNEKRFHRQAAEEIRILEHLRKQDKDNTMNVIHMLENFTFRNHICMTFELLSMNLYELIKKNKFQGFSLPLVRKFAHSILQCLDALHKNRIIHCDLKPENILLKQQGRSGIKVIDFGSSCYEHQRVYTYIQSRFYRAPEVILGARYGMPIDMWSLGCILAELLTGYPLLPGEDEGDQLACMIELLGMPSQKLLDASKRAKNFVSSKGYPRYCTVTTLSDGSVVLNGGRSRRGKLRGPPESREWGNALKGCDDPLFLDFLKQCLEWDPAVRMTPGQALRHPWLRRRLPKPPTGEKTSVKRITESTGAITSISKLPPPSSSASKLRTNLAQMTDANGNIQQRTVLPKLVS
Outline: as §1

[4] = target: FGFR1(h) (Homo sapiens, UniProt P11362)
Outline: as §1

[5] = target: T3, GRK7(h) (Homo sapiens, UniProt Q8WTQ7)
T3 construct: purchased Millipore
T3 sequence (Q8WTQ7 1-553): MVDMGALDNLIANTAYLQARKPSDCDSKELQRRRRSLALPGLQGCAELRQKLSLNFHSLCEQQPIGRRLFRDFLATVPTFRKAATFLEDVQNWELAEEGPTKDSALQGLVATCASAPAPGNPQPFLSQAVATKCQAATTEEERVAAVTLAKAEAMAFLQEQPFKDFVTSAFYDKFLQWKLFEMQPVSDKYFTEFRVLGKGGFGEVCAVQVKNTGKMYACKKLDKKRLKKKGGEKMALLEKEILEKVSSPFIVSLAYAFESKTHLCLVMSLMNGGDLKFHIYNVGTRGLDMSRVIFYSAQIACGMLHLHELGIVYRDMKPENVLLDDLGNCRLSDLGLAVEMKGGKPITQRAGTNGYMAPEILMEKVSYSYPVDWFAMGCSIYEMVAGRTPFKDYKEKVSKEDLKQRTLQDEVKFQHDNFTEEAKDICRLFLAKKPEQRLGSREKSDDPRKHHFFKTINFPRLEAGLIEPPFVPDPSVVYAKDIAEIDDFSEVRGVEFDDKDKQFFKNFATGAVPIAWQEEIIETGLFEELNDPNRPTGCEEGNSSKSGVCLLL
Outline: as §1

[6] = target: T4, IGF-1R(h), activated (Homo sapiens, UniProt P08069)
T4 construct: purchased Millipore
Outline: as §1

[7] = target: T5, MELK(h) (Homo sapiens, UniProt Q14680)
T5 construct: purchased Millipore
Outline: as §1

[8] = target: ROCK-II(h) (Homo sapiens, UniProt O75116)
Outline: as §1

[9] = target: T6, SAPK3(h) (Homo sapiens, UniProt P53778)
T6 construct: purchased Millipore
T6 sequence (P53778 1-367): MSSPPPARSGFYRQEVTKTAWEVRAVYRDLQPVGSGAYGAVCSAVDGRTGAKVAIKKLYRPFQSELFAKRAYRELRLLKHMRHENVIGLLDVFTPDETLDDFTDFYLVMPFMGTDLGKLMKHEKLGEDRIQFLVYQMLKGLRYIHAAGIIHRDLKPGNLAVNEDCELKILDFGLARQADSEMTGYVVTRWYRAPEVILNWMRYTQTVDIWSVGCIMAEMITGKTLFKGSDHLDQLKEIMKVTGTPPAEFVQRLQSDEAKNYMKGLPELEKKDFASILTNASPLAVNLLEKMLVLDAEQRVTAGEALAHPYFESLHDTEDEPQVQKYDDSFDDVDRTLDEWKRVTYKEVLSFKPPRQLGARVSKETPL
Outline: as §1

[10] = target: VRK2(h) (Homo sapiens, UniProt Q86Y07)
Outline: as §1

Sequence of FGFR1(h) (P11362 22-822): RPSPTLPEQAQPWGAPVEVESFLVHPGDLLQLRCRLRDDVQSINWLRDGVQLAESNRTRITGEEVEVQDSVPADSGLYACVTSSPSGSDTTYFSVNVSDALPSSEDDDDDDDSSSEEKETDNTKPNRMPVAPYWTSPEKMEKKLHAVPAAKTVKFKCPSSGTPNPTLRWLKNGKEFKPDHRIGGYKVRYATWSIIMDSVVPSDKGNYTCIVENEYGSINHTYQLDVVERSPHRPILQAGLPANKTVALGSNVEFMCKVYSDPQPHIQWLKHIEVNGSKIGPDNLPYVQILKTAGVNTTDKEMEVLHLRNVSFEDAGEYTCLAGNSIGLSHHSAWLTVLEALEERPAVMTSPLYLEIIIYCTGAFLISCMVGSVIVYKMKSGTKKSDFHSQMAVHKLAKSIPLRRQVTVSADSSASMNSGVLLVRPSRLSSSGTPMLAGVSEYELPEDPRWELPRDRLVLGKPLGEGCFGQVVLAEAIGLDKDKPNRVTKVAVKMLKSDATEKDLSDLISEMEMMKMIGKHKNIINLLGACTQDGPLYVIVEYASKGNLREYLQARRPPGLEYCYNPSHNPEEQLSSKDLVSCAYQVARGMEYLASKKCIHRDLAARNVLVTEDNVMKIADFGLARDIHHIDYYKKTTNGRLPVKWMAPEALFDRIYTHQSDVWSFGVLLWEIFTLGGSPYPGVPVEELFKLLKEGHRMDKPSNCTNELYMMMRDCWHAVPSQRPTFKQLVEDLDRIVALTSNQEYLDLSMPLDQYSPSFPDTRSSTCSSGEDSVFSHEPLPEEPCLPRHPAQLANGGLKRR
Sequence of DAPK1(h) (P53355 whole entry): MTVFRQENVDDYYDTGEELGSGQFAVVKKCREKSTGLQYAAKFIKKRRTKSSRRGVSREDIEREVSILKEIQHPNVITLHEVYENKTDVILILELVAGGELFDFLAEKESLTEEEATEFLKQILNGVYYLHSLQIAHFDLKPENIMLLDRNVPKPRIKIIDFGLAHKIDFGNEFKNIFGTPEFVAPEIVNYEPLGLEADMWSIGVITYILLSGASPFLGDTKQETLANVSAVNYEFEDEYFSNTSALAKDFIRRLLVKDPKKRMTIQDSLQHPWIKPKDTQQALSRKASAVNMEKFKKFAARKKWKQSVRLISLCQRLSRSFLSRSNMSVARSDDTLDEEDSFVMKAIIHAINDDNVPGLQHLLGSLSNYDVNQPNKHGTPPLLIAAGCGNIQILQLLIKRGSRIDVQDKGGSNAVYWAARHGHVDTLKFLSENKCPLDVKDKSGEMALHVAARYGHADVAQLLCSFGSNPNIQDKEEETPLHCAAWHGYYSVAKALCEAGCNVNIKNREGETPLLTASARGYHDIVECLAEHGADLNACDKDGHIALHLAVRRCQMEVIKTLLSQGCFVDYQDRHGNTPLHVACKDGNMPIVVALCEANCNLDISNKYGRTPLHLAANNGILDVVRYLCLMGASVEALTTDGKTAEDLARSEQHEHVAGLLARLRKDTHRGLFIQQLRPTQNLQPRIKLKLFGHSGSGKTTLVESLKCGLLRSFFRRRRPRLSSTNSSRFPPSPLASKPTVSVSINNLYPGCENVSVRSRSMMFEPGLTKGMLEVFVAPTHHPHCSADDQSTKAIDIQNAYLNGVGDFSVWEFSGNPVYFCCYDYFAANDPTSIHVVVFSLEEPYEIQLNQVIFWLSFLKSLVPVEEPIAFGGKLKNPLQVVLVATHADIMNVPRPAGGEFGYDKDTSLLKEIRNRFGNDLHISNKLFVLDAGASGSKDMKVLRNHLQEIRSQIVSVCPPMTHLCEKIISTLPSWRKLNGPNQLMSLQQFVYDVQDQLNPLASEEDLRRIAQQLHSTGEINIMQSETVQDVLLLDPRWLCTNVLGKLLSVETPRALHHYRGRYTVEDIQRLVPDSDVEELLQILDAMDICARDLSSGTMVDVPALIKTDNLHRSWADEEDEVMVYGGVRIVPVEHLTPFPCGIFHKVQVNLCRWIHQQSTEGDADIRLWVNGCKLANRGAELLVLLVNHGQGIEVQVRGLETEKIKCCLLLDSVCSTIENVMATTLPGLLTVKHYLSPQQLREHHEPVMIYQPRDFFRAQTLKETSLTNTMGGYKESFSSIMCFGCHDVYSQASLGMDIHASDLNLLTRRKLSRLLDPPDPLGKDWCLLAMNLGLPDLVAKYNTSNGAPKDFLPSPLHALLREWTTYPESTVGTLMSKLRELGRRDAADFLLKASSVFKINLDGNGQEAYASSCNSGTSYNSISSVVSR
T4 sequence (P08069 959-1367 limits assumed): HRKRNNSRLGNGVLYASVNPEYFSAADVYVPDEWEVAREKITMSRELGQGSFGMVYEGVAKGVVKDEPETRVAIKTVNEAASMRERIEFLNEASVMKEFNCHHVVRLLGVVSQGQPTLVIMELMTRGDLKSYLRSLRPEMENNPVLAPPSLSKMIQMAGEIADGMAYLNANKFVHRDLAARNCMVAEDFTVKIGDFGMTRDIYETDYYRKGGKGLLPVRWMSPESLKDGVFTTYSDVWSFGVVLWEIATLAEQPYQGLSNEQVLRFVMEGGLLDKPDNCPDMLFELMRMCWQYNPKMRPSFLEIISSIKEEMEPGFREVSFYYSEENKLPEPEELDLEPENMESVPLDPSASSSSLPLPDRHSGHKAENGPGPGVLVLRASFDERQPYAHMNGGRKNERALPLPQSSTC
Sequence of ROCK-II(h) (O75116 whole entry): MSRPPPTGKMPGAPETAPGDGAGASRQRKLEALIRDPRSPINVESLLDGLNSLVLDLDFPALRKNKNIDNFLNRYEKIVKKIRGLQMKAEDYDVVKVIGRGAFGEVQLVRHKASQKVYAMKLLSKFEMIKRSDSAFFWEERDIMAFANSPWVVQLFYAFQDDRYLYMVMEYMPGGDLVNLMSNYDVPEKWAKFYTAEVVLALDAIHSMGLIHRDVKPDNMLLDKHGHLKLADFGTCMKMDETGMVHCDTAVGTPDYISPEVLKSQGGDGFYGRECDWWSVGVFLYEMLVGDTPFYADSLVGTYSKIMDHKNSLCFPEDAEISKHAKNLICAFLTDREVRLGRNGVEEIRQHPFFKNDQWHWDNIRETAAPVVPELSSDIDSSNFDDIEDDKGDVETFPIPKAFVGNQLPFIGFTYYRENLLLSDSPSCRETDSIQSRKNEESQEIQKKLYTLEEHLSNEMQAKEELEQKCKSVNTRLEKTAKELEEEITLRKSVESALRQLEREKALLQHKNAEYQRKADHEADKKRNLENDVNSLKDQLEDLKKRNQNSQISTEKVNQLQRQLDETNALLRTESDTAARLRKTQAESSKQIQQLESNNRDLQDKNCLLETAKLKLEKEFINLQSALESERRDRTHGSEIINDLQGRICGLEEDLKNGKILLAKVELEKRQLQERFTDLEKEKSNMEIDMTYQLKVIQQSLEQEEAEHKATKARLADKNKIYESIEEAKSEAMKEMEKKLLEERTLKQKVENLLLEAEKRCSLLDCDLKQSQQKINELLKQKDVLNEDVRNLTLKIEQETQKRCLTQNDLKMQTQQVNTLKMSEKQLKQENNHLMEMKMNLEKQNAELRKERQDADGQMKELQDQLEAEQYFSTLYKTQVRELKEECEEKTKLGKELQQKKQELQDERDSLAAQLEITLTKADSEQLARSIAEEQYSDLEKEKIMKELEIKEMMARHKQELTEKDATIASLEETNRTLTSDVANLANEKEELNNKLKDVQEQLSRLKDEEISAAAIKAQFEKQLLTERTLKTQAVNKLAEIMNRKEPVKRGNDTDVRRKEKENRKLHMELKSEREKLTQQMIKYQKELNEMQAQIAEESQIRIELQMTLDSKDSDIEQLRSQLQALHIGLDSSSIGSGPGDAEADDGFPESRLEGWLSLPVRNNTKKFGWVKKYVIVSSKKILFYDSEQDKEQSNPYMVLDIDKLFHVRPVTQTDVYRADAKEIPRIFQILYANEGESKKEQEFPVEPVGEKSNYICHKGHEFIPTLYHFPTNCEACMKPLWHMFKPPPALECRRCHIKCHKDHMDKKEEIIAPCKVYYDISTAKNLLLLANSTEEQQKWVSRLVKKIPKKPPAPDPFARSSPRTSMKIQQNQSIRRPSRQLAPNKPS
T5 sequence (Q14680 whole entry): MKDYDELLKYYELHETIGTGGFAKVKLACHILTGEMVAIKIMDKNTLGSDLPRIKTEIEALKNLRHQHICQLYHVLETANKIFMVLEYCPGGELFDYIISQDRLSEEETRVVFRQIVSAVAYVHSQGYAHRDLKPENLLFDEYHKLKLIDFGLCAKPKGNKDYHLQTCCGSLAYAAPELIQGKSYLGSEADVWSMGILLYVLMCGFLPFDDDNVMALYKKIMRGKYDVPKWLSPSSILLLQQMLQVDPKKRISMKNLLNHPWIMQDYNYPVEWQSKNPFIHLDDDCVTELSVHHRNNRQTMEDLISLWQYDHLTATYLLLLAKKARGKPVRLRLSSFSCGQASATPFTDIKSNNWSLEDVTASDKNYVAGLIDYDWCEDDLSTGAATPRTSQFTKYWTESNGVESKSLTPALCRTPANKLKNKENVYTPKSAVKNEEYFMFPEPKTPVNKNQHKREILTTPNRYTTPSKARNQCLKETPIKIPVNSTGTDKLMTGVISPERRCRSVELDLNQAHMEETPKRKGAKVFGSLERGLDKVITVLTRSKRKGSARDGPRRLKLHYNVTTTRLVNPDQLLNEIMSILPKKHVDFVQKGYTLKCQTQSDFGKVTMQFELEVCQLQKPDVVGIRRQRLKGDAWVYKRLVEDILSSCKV

Sequence	% activity [1]	% activity [2]	% activity [3]	% activity [4]	% activity [5]	% activity [6]	% activity [7]	% activity [8]	% activity [9]	% activity [10]
FAKLAARLYRKALARQLGVAA [MMI-0300]	140%	46%	155%	55%	122%	80%	16%	74%	84%	161%
HRRIKAWLKKIKALARQLGVAA (Mammal) [MMI-0500]	81%	0%	127%	18%	93%	45%	0%	2%	24%	169%
KAFAKLAARLYRKALARQLGVAA [MMI-0400]	130%	36%	195%	59%	100%	77%	17%	77%	79%	185%
YARAAARQARAKALARQLGVAA [MMI-0100]	124%	97%	–	120%	–	126%	74%	–	–	–
YARAAARQARAKALNRQLGVA (Mammal) [MMI-0200]	152%	–	142%	97%	124%	94%	59%	85%	97%	–
